Data set [1] relates to HeLa Kyoto. The experiment in a line: solubility change mitosis vs G1/S (difference of NP-40 vs SDS log2 ratios) (log2 ratio difference); higher = more soluble in mitosis.
Data set [2] has as its system HeLa Kyoto. The data set can be described thus: solubility in G1/S (NP-40 vs SDS abundance) (log2 ratio); higher = more soluble. The note with it: cell cycle stage: G1/S.
The test system of data set [3] is HeLa Kyoto. The data set can be described thus: melting temperature (median over replicates), in situ; higher = more thermally stable.
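For melting temperature (median over replicates), in situ in this document: HeLa Kyoto cells synchronized by double thymidine or nocodazole block, proteins quantified by TMT10plex mass spectrometry, three independent biological replicates.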
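For solubility change mitosis vs G1/S (difference of NP-40 vs SDS log2 ratios) in this document: synchronized HeLa Kyoto cells (double thymidine block for G1/S, nocodazole release for mitosis), protein amounts in NP-40 versus SDS lysates quantified by mass spectrometry, three biological replicates.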
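For solubility in G1/S (NP-40 vs SDS abundance) in this document: HeLa Kyoto cells arrested at G1/S by double thymidine block, proteins quantified by TMT10plex mass spectrometry in mild NP-40 versus SDS extracts, three biological replicates.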

For “MNGEEEFFDAVTGFDSDNSSGEFSEANQKVTGMIDLDTSKNNRIGKTGERPSQENGIQKHRTSLPAPMFSRSDFSVWTILKKCVGLELSKITMPIAFNEPLSFLQRITEYMEHVYLIHRASCQPQPLERMQSVAAFAVSAVASQWERTGKPFNPLLGETYELIREDLGFRFISEQVSHHPPISAFHSEGLNHDFLFHGSIYPKLKFWGKSVEAEPRGTITLELLKHNEAYTWTNPTCCVHNVIIGKLWIEQYGTVEILNHRTGHKCVLHFKPCGLFGKELHKVEGHIQDKNKKKLFMIYGKWTECLWGIDPVSYESFKKQERRGDHLRKAKLDEDSGKADSDVADDVPVAQETVQVIPGSKLLWRINTRPPNSAQMYNFTSFTVSLNELETGMEKTLPPTDCRLRPDIRGMENGNMDLASQEKERLEEKQREARRERAKEEAEWQTRWFYPGNNPYTGTPDWLYAGDYFERNFSDCPDIY [OSBPL2]”, the “solubility change mitosis (log2)” value with HeLa Kyoto [1] was -0.108. The “solubility in G1/S (log2)” value in the data set with HeLa Kyoto [2] is -0.0421. Besides, the melting temperature is 48.1 °C in the data set with HeLa Kyoto [3] (cell cycle stage: G1/S) and 48.6 °C with HeLa Kyoto [3] (cell cycle stage: mitosis).

In the case of “MNSVRAANRRPRRVSRPRPVQQQQQQPPQQPPPQPPQQQPPQQQPPPPPQQQQQQQPPPPPPPPPPLPQERNNVGERDDDVPADMVAEESGPGAQNSPYQLRRKTLLPKRTACPTKNSMEGASTSTTENFGHRAKRARVSGKSQDLSAAPAEQYLQEKLPDEVVLKIFSYLLEQDLCRAACVCKRFSELANDPILWKRLYMEVFEYTRPMMHPEPGKFYQINPEEYEHPNPWKESFQQLYKGAHVKPGFAEHFYSNPARYKGRENMLYYDTIEDALGGVQEAHFDGLIFVHSGIYTDEWIYIESPITMIGAAPGKVADKVIIENTRDSTFVFMEGSEDAYVGYMTIRFNPDDKSAQHHNAHHCLEITVNCSPIIDHCIIRSTCTVGSAVCVSGQGACPTIKHCNISDCENVGLYITDHAQGIYEDNEISNNALAGIWVKNHGNPIIRRNHIHHGRDVGVFTFDHGMGYFESCNIHRNRIAGFEVKAYANPTVVRCEIHHGQTGGIYVHEKGRGQFIENKIYANNFAGVWITSNSDPTIRGNSIFNGNQGGVYIFGDGRGLIEGNDIYGNALAGIQIRTNSCPIVRHNKIHDGQHGGIYVHEKGQGVIEENEVYSNTLAGVWVTTGSTPVLRRNRIHSGKQVGVYFYDNGHGVLEDNDIYNHMYSGVQIRTGSNPKIRRNKIWGGQNGGILVYNSGLGCIEDNEIFDNAMAGVWIKTDSNPTLRRNKIHDGRDGGICIFNGGRGLLEENDIFRNAQAGVLISTNSHPILRKNRIFDGFAAGIEITNHATATLEGNQIFNNRFGGLFLASGVNVTMKDNKIMNNQDAIEKAVSRGQCLYKISSYTSYPMHDFYRCHTCNTTDRNAICVNCIKKCHQGHDVEFIRHDRFFCDCGAGTLSNPCTLAGEPTHDTDTLYDSAPPIESNTLQHN [FBXO11]”, the “solubility change mitosis (log2)” value in the data set on HeLa Kyoto [1] came out at 0.764. Further, the “solubility in G1/S (log2)” value in the data set with HeLa Kyoto [2] is -1.25. This sequence displayed a melting temperature with HeLa Kyoto [3] (cell cycle stage: mitosis) of 52.6 °C.

With “MPVVWPTLLDLSRDECKRILRKLELEAYAGVISALRAQGDLTKEKKDLLGELSKVLSISTERHRAEVRRAVNDERLTTIAHNMSGPNSSSEWSIEGRRLVPLMPRLVPQTAFTVTANAVANAAIQHNASLPVPAETGSKEVVCYSYTSTTSTPTSTPVPSGSIATVKSPRPASPASNVVVLPSGSTVYVKSVSCSDEDEKPRKRRRTNSSSSSPVVLKEVPKAVVPVSKTITVPVSGSPKMSNIMQSIANSLPPHMSPVKITFTKPSTQTTNTTTQKVIIVTTSPSSTFVPNILSKSHNYAAVTKLVPTSVIASTTQKPPVVITASQSSLVSNSSSGSSSSTPSPIPNTVAVTAVVSSTPSVVMSTVAQGVSTSAIKMASTRLPSPKSLVSAPTQILAQFPKQHQQSPKQQLYQVQQQTQQQVAQPSPVSHQQQPQQSPLPPGIKPTIQIKQESGVKIITQQVQPSKILPKPVTATLPTSSNSPIMVVSSNGAIMTTKLVTTPTGTQATYTRPTVSPSIGRMAATPGAATYVKTTSGSIITVVPKSLATLGGKIISSNIVSGTTTKITTIPMTSKPNVIVVQKTTGKGTTIQGLPGKNVVTTLLNAGGEKTIQTVPTGAKPAILTATRPITKMIVTQPKGIGSTVQPAAKIIPTKIVYGQQGKTQVLIKPKPVTFQATVVSEQTRQLVTETLQQASRVAEAGNSSIQEGKEEPQNYTDSSSSSTESSQSSQDSQPVVHVIASRRQDWSEHEIAMETSPTIIYQDVSSESQSATSTIKALLELQQTTVKEKLESKPRQPTIDLSQMAVPIQMTQEKRHSPESPSIAVVESELVAEYITTERTDEGTEVAFPLLVSHRSQPQQPSQPQRTLLQHVAQSQTATQTSVVVKSIPASSPGAITHIMQQALSSHTAFTKHSEELGTEEGEVEEMDTLDPQTGLFYRSALTQSQSAKQQKLSQPPLEQTQLQVKTLQCFQTKQKQTIHLQADQLQHKLPQMPQLSIRHQKLTPLQQEQAQPKPDVQHTQHPMVAKDRQLPTLMAQPPQTVVQVLAVKTTQQLPKLQQAPNQPKIYVQPQTPQSQMSLPASSEKQTASQVEQPIITQGSSVTKITFEGRQPPTVTKITGGSSVPKLTSPVTSISPIQASEKTAVSDILKMSLMEAQIDTNVEHMIVDPPKKALATSMLTGEAGSLPSTHMVVAGMANSTPQQQKCRESCSSPSTVGSSLTTRKIDPPAVPATGQFMRIQNVGQKKAEESPAEIIIQAIPQYAIPCHSSSNVVVEPSGLLELNNFTSQQLDDEETAMEQDIDSSTEDGTEPSPSQSSAERS [EMSY]”, the “solubility change mitosis (log2)” value in the data set with HeLa Kyoto [1] amounted to 0.0269. The “solubility in G1/S (log2)” value in the data set on HeLa Kyoto [2] is -0.0948. Besides, the melting temperature stood at 44.6 °C with HeLa Kyoto [3] (cell cycle stage: G1/S) and 50.6 °C with HeLa Kyoto [3] (cell cycle stage: mitosis).

The values are drawn from the supplement of paper PMC5998384.
